Earlier results as cited in article PMC7431755, “Automated high-content imaging for cellular uptake, from the Schmuck cation to the latest cyclic oligochalcogenides” (Beilstein Journal of Organic Chemistry, 2020).
Like-named read-outs stand apart in the source and are kept apart here.

Test system: HGM cells
Description: The CP50 value of 7.3 ± 0.5 µM obtained for 25 outperformed the CP50 value of 14.9 ± 0.5 μM of the previously reported cell-penetrating streptavidin, in which four asparagusic acids are covalently bound to the protein through irreversible triazole linkages. The CP50 value of 7.3 ± 0.5 µM of 25 was not far above the CP50 value of 3.1 ± 0.5 µM of HIV Tat, the original CPP [55]. As the uptake efficiency generally decreases with the size, this similarity is particularly impressive, considering that the COC carrying a 52 kDa protein is compared to a small undecapeptide.

Substance | CP50 (CAPA) | CP50
HIV Tat: the original CPP, a small undecapeptide | 3.1 ± 0.5 µM | 
cell-penetrating streptavidin: previously reported streptavidin with four asparagusic acids covalently bound through irreversible triazole linkages |  | 14.9 ± 0.5 µM
